From US20210269521A1 (L AND L BIOPHARMA, published 2021) come the findings set out here.

Test [1] addresses T1, human PD-1 extracellular domain protein expressed in Example 1 (tag not stated) (human, UniProt Q15116 25-170).
T1 construct: extracellular domain; also called PD-1 protein; not shown: human IgG1 Fc or his tag
In words: double-sandwich ELISA: PD-1 coated, LB141 titrated, detected with Bio-TIM-3-his and streptavidin-HRP. (An ELISA detects its analyte on a solid surface through an enzyme-linked reagent.)

For test [2], the target named is T2, human TIM-3 extracellular domain-his tag protein (human, UniProt Q8TDQ0 22-199).
T2 construct: Made in house or bought (ACROBiosystems TM3-H5229); also called TIM-3-his; Human Tim3-his; not shown: his tag
Description: SPR Biacore, antibody captured on Protein A, antigen in flow. The method, then:
(§1) First, Protein A (Thermo Pierce, Cat #21181) was conjugated to the biosensing chip CMS (Cat. #BR-1005-30, GE), and the chip was activated with the newly prepared 50 mM NHS (N-hydroxysuccinimide) and 200 mM EDC [1-ethyl-3-(3-dimethylaminopropyl) carbodiimide hydrochloride], then 10 μg/ml Protein A prepared with 10 mM NaAC (pH 4.0) was injected. […] The flow rate was 30 μl/min, the binding time was 180 seconds and the dissociation time is 300 seconds. Subsequently, the chip was washed for 30s with 10 mM Glycine-HCl (pH 1.5) at 30 μl/min. The data were fitted with a 1:1 Langmuir model using the software of Biacore T200 evaluation version 3.0 (GE), and the affinity value KD was obtained.

For a further test, the target named is T3, Human PD-1-his (human, UniProt Q15116 25-170).
T3 construct: extracellular domain; not shown: his tag
Described as above. The method, then:
as §1

Test [3] addresses T4, human TIM-3 extracellular domain-human IgG1 Fc fusion protein (human, UniProt Q8TDQ0 22-199).
T4 construct: Made in house or bought (ACROBiosystems TM3-H5258); also called TIM-3-hFc; not shown: human IgG1 Fc
Description: ELISA; 15 mg/mL in preparation buffer (20 mM His pH 6.0), 37°C 0 day (-80°C).

Test [4] addresses T1, human PD-1 extracellular domain protein …. The test is described as above.
In test [5] the target is T4, human TIM-3 extracellular domain-human …. In words: ELISA; 15 mg/mL in PBS, 37°C 0 day (-80°C).
Test [6] addresses T1, human PD-1 extracellular domain protein …. In words: ELISA; 15 mg/mL in PBS, 37°C 0 day (-80°C).
Test [7] deals with T4, human TIM-3 extracellular domain-human …. In words: ELISA; pH 5.5, 37°C 7 days, against 0 day.
The target in test [8] is T1, human PD-1 extracellular domain protein …. In words: ELISA; pH 5.5, 37°C 7 days, against 0 day.
Test [9] has the same target. Description: ELISA, EC50 of bispecific over EC50 of the monoclonal control. The protocol: After washing the microplate 5 times with PBST, 50 μl/well TMB chromogenic substrate (KPL, 52-00-03) was added to the microplate, followed by incubating at room temperature for 10-15 min.
PD-1 expressed in Example 1 was diluted to a concentration of 1 μg/ml with PBS buffer, pH 7.4, and added to a 96-well microplate (Corning, CLS3590-100EA) at 50 μl per well, thereby incubating in an incubator at 37° C. for 2 hours. After discarding the liquid, a blocking solution of 5% skimmed milk (Shanghai Shenggong Biological Engineering Co., Ltd., A600669-0250) diluted with PBS was added at 200 μl per well, followed by incubating at 37° C. for 3 hours or 4° C. overnight (16-18 hours)) for blocking. Subsequently, the blocking solution was discarded, and the microplate was washed 5 times with PBST buffer (pH 7.4 PBS containing 0.05% tween-20). […] Subsequently, the microplate was washed 5 times with PBST, then 50 μl/well of 1:2500 diluted HRP-labeled secondary antibody (Jackson Immuno Research, 115-035-003) was added, thereby incubating at 37° C. for 1 hour. After washing the microplate 5 times with PBST, 50 μl/well TMB chromogenic substrate (KPL, 52-00-03) was added, then incubated at room temperature for 5-10 min. Finally, 50 μl/well of 1M H₂SO₄ was added to stop the reaction. […] Go microplate reader (ThermoFisher, 51119200) was used to read the absorption value at 450 nm and the EC50 based on the OD value was calculated.

Test [10] deals with T4, human TIM-3 extracellular domain-human …. In words: ELISA; PBS, 37°C 7 days.
Test [11] deals with T1, human PD-1 extracellular domain protein …. Description: ELISA; PBS, 37°C 7 days.
The target of test [12] is T4, human TIM-3 extracellular domain-human …. Description: ELISA; pH 5.5, 37°C 5 days, against 0 day.
For test [13], the target named is T1, human PD-1 extracellular domain protein …. Description: ELISA; pH 5.5, 37°C 5 days, against 0 day.

B1: bispecific antibody LB141 (bispecific antibody, human IgG4 S228P, kappa)
light: EIVLTQSPATLSLSPGERATLSCRASKGVSTSGYSYLHWYQQKPGQAPRLLIYLASYLESGVPARFSGSGSGTDFTLTISSLEPEDFAVYYCQHSRDLPLTFGGGTKVEIKRTVAAPSVFIFPPSDEQLKSGTASVVCLLNNFYPREAKVQWKVDNALQSGNSQESVTEQDSKDSTYSLSSTLTLSKADYEKHKVYACEVTHQGLSSPVTKSFNRGEC
heavy: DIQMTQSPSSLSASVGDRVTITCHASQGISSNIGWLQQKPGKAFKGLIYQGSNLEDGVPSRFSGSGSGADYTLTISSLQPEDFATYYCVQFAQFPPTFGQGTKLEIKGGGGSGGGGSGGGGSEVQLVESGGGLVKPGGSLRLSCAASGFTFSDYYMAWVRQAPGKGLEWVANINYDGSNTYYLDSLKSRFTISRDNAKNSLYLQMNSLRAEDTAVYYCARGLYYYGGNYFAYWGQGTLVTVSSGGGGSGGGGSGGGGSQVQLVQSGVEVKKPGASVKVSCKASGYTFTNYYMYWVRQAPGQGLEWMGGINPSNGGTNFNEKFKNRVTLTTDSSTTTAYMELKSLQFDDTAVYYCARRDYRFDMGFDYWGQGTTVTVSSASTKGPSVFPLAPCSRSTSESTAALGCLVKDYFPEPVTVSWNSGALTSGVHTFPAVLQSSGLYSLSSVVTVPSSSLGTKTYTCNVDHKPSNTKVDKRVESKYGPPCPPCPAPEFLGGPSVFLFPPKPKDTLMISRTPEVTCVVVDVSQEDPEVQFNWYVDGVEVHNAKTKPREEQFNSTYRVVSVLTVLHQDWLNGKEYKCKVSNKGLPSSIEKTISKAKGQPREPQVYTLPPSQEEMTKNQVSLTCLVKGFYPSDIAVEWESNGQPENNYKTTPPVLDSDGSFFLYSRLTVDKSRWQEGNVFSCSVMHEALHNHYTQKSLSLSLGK
notes: ab6VL-(G4S)3-ab6VH-(G4S)3-PemVH-hIgG4 with PemVL-κ
As usually defined, the EC50 is the midpoint of the concentration-response curve. Lower therefore signals higher potency in that assay. Broadly, the Kd is the equilibrium constant for the complex coming apart. Higher therefore signals lower affinity. One may read the koff as the rate constant with which the complex falls apart. High values mean a short-lived complex, low ones a long-lived complex. One may read the kon as the rate constant with which the complex forms. A high value points to fast association. As to B1, the EC50 in test [1] is 0.816 nM; in test [3] it was 0.303 nM; in test [4] it was 0.378 nM; in test [5], 0.253 nM; in test [6], 0.293 nM; in [10], 0.325 nM. The molecule further gave a concentration for a half-maximal effect (EC50) in test [11] of 0.339 nM. Further, the results for the Kd (in test [2]; with Human PD-1-his) were 5.05 nM and 6.63 nM, respectively. Besides, the values for the koff (in test [2]; with Human PD-1-his) were 0.00393 s⁻¹ and 0.00285 s⁻¹, respectively. Also, the kon in test [2] was 777000 M⁻¹ s⁻¹; in the test with Human PD-1-his it was 430000 M⁻¹ s⁻¹. Further, the “Fold change of EC50” value in [7] was determined as 1.06 ratio; in test [8], 0.89 ratio; in test [12], 0.93 ratio; in [13], 1.2 ratio. Moreover, the “Multiple of EC50 variation” value in test [9] amounted to 1.32 ratio.
